Results as given in article PMC7136618, “Defective nucleotide-dependent assembly and membrane fusion in Mfn2 CMT2A variants improved by Bax” (Life Science Alliance, 2020).

B1: Mfn2^S378P with a C-terminal 3×FLAG tag (natural protein, UniProt Q80U63 1-757, looked up)
chain: MSLLFSRCNSIVTVKKDKRHMAEVNASPLKHFVTAKKKINGIFEQLGAYIQESASFLEDTHRNTELDPVTTEEQVLDVKGYLSKVRGISEVLARRHMKVAFFGRTSNGKSTVINAMLWDKVLPSGIGHTTNCFLRVGGTDGHEAFLLTEGSEEKKSVKTVNQLAHALHQDEQLHAGSMVSVMWPNSKCPLLKDDLVLMDSPGIDVTTELDSWIDKFCLDADVFVLVANSESTLMQTEKQFFHKVSERLSRPNIFILNNRWDASASEPEYMEEVRRQHMERCTSFLVDELGVVDRAQAGDRIFFVSAKEVLSARVQKAQGMPEGGGALAEGFQVRMFEFQNFERQFEECISQSAVKTKFEQHTVRAKQIAEAVRLIMDPLHIAAQEQRVYCLEMREERQDRLRFIDKQLELLAQDYKLRIKQITEEVERQVSTAMAEEIRRLSVLVDEYQMDFHPSPVVLKVYKNELHRHIEEGLGRNLSDRCSTAIASSLQTMQQDMIDGLKPLLPVSMRNQIDMLVPRQCFSLSYDLNCDKLCADFQEDIEFHFSLGWTMLVNRFLGPKNSRRALLGYSDQVQRPLPLTPANPSMPPLPQSSLTQEELMVSMVTGLASLTSRTSMGILVVGGVVWKAVGWRLIALSFGLYGLLYVYERLTWTTKAKERAFKRQFVEYASEKLQLIISYTGSNCSHQVQQELSGTFAHLCQQVDITRDNLEQEIAAMNKKVEALDSLQSRAKLLRNKAGWLDSELNMFTHQYLQPSR
notes: Mitofusin 2 (Mfn2) with the CMT2A-associated substitution S378P; CMT2A-associated (patient) substitution; also called Mfn2-FLAG variant S378P; source: Mfn2-null MEFs, retroviral transduction, clonal population; isolated mitochondria, lysed; not shown: 3×FLAG, C-terminal, kept
B2: Mfn2^Q386P with a C-terminal 3×FLAG tag (natural protein, UniProt Q80U63 1-757, looked up)
chain: MSLLFSRCNSIVTVKKDKRHMAEVNASPLKHFVTAKKKINGIFEQLGAYIQESASFLEDTHRNTELDPVTTEEQVLDVKGYLSKVRGISEVLARRHMKVAFFGRTSNGKSTVINAMLWDKVLPSGIGHTTNCFLRVGGTDGHEAFLLTEGSEEKKSVKTVNQLAHALHQDEQLHAGSMVSVMWPNSKCPLLKDDLVLMDSPGIDVTTELDSWIDKFCLDADVFVLVANSESTLMQTEKQFFHKVSERLSRPNIFILNNRWDASASEPEYMEEVRRQHMERCTSFLVDELGVVDRAQAGDRIFFVSAKEVLSARVQKAQGMPEGGGALAEGFQVRMFEFQNFERQFEECISQSAVKTKFEQHTVRAKQIAEAVRLIMDSLHIAAQEPRVYCLEMREERQDRLRFIDKQLELLAQDYKLRIKQITEEVERQVSTAMAEEIRRLSVLVDEYQMDFHPSPVVLKVYKNELHRHIEEGLGRNLSDRCSTAIASSLQTMQQDMIDGLKPLLPVSMRNQIDMLVPRQCFSLSYDLNCDKLCADFQEDIEFHFSLGWTMLVNRFLGPKNSRRALLGYSDQVQRPLPLTPANPSMPPLPQSSLTQEELMVSMVTGLASLTSRTSMGILVVGGVVWKAVGWRLIALSFGLYGLLYVYERLTWTTKAKERAFKRQFVEYASEKLQLIISYTGSNCSHQVQQELSGTFAHLCQQVDITRDNLEQEIAAMNKKVEALDSLQSRAKLLRNKAGWLDSELNMFTHQYLQPSR
notes: Mitofusin 2 (Mfn2) with the CMT2A-associated substitution Q386P; CMT2A-associated (patient) substitution; also called Mfn2-FLAG variant Q386P; source: Mfn2-null MEFs, retroviral transduction, clonal population; isolated mitochondria, lysed; not shown: 3×FLAG, C-terminal, kept
B3: Mfn2^A383V with a C-terminal 3×FLAG tag (natural protein, UniProt Q80U63 1-757, looked up)
chain: MSLLFSRCNSIVTVKKDKRHMAEVNASPLKHFVTAKKKINGIFEQLGAYIQESASFLEDTHRNTELDPVTTEEQVLDVKGYLSKVRGISEVLARRHMKVAFFGRTSNGKSTVINAMLWDKVLPSGIGHTTNCFLRVGGTDGHEAFLLTEGSEEKKSVKTVNQLAHALHQDEQLHAGSMVSVMWPNSKCPLLKDDLVLMDSPGIDVTTELDSWIDKFCLDADVFVLVANSESTLMQTEKQFFHKVSERLSRPNIFILNNRWDASASEPEYMEEVRRQHMERCTSFLVDELGVVDRAQAGDRIFFVSAKEVLSARVQKAQGMPEGGGALAEGFQVRMFEFQNFERQFEECISQSAVKTKFEQHTVRAKQIAEAVRLIMDSLHIAVQEQRVYCLEMREERQDRLRFIDKQLELLAQDYKLRIKQITEEVERQVSTAMAEEIRRLSVLVDEYQMDFHPSPVVLKVYKNELHRHIEEGLGRNLSDRCSTAIASSLQTMQQDMIDGLKPLLPVSMRNQIDMLVPRQCFSLSYDLNCDKLCADFQEDIEFHFSLGWTMLVNRFLGPKNSRRALLGYSDQVQRPLPLTPANPSMPPLPQSSLTQEELMVSMVTGLASLTSRTSMGILVVGGVVWKAVGWRLIALSFGLYGLLYVYERLTWTTKAKERAFKRQFVEYASEKLQLIISYTGSNCSHQVQQELSGTFAHLCQQVDITRDNLEQEIAAMNKKVEALDSLQSRAKLLRNKAGWLDSELNMFTHQYLQPSR
notes: Mitofusin 2 (Mfn2) with the CMT2A-associated substitution A383V; CMT2A-associated (patient) substitution; also called Mfn2-FLAG variant A383V; source: Mfn2-null MEFs, retroviral transduction, clonal population; isolated mitochondria, lysed; not shown: 3×FLAG, C-terminal, kept
B4: Mfn2^C390F with a C-terminal 3×FLAG tag (natural protein, UniProt Q80U63 1-757, looked up)
chain: MSLLFSRCNSIVTVKKDKRHMAEVNASPLKHFVTAKKKINGIFEQLGAYIQESASFLEDTHRNTELDPVTTEEQVLDVKGYLSKVRGISEVLARRHMKVAFFGRTSNGKSTVINAMLWDKVLPSGIGHTTNCFLRVGGTDGHEAFLLTEGSEEKKSVKTVNQLAHALHQDEQLHAGSMVSVMWPNSKCPLLKDDLVLMDSPGIDVTTELDSWIDKFCLDADVFVLVANSESTLMQTEKQFFHKVSERLSRPNIFILNNRWDASASEPEYMEEVRRQHMERCTSFLVDELGVVDRAQAGDRIFFVSAKEVLSARVQKAQGMPEGGGALAEGFQVRMFEFQNFERQFEECISQSAVKTKFEQHTVRAKQIAEAVRLIMDSLHIAAQEQRVYFLEMREERQDRLRFIDKQLELLAQDYKLRIKQITEEVERQVSTAMAEEIRRLSVLVDEYQMDFHPSPVVLKVYKNELHRHIEEGLGRNLSDRCSTAIASSLQTMQQDMIDGLKPLLPVSMRNQIDMLVPRQCFSLSYDLNCDKLCADFQEDIEFHFSLGWTMLVNRFLGPKNSRRALLGYSDQVQRPLPLTPANPSMPPLPQSSLTQEELMVSMVTGLASLTSRTSMGILVVGGVVWKAVGWRLIALSFGLYGLLYVYERLTWTTKAKERAFKRQFVEYASEKLQLIISYTGSNCSHQVQQELSGTFAHLCQQVDITRDNLEQEIAAMNKKVEALDSLQSRAKLLRNKAGWLDSELNMFTHQYLQPSR
notes: Mitofusin 2 (Mfn2) with the CMT2A-associated substitution C390F; CMT2A-associated (patient) substitution; also called Mfn2-FLAG variant C390F; source: Mfn2-null MEFs, retroviral transduction, clonal population; isolated mitochondria, lysed; not shown: 3×FLAG, C-terminal, kept

Columns and labels:
[1] = target: Mfn2^WT with a C-terminal 3×FLAG tag (UniProt Q80U63); assay: native gel or EMSA; BN-PAGE of untreated isolated mitochondria, lysed in 1% digitonin; 4–16% Bis-Tris native gel at 4°C; anti-FLAG blot
[2] = target: the molecule itself; assay: as above

| Molecule | stoichiometry N [1] | stoichiometry N [2] |
| --- | --- | --- |
| Mfn2^WT with a C-terminal 3×FLAG tag (from UniProt Q80U63 1-757) (natural protein) | 2 |  |
| B1 |  | 2 |
| B2 |  | 2 |
| B3 |  | 2 |
| B4 |  | 2 |
